The values that follow come from patent publication US20170037110A1 (IMMATICS BIOTECHNOLOGIES, published 2017).

This assay concerns the target T1, HLA-A*02:01 (human).
T1 construct: monomers captured on streptavidin plates; also called MHC class I
Kind of assay: UV peptide exchange ELISA. An excerpt:
Candidate peptides for T cell based therapies according to the present invention were further tested for their MHC binding capacity (affinity). The individual peptide-MHC complexes were produced by UV-ligand exchange, where a UV-sensitive peptide is cleaved upon UV-irradiation, and exchanged with the peptide of interest as analyzed. Only peptide candidates that can effectively bind and stabilize the peptide-receptive MHC molecules prevent dissociation of the MHC complexes. To determine the yield of the exchange reaction, an ELISA was performed based on the detection of the light chain (p2m) of stabilized MHC complexes.
96 well MAXISorp plates (NUNC) were coated over night with 2 μg/ml streptavidin in PBS at room temperature, washed 4× and blocked for 1 h at 37° C. in 2% BSA containing blocking buffer. […] Peptide-MHC monomers of the UV-exchange reaction were diluted 100 fold in blocking buffer. Samples were incubated for 1h at 37° C., washed four times, incubated with 2 μg/ml HRP conjugated anti-p2m for 1h at 37° C., washed again and detected with TMB solution that is stopped with […]. Absorption was measured at 450 nm.

B1: YQYPRAILSV (peptide)
peptide: YQYPRAILSV
On to B1, for which the peptide exchange yield was 50 to 75%.

B2: ILVGGGALATV (peptide)
peptide: ILVGGGALATV
Regarding B2, the peptide exchange yield fell in the range of 50 to 75%.

B3: SLMEPPAVLLL (peptide)
peptide: SLMEPPAVLLL
For B3, the peptide exchange yield lay in the range of 50 to 75%.

B4: YLIDIKTIAI (peptide)
peptide: YLIDIKTIAI
Molecule B4 registered a peptide exchange yield of 20 to 50%.

B5: NLWDLTDASVV (peptide)
peptide: NLWDLTDASVV
The molecule B5 yielded a peptide exchange yield of 50 to 75%.

B6: LLVEQPPLAGV (peptide)
peptide: LLVEQPPLAGV
Molecule B6 came in with a peptide exchange yield of 50 to 75%.

B7: FLLAEDDIYL (peptide)
peptide: FLLAEDDIYL
Take B7: the peptide exchange yield was 50 to 75%.

B8: VLAYFLPEA (peptide)
peptide: VLAYFLPEA
B8 had a peptide exchange yield of no less than 75%.

B9: FLFATPVFI (peptide)
peptide: FLFATPVFI
For the molecule B9, the peptide exchange yield was 50 to 75%.

B10: YLADPSNLFVV (peptide)
peptide: YLADPSNLFVV
B10 registered a peptide exchange yield of 50 to 75%.

B11: KLIDNNINV (peptide)
peptide: KLIDNNINV
As for B11, the peptide exchange yield lay in the range of 50 to 75%.

B12: RLWEEGEELEL (peptide)
peptide: RLWEEGEELEL
B12 registered a peptide exchange yield of 50 to 75%.

B13: SVIPQIQKV (peptide)
peptide: SVIPQIQKV
Take B13: the peptide exchange yield fell in the range of 50 to 75%.

B14: HLTEVYPEL (peptide)
peptide: HLTEVYPEL
For the molecule B14, the peptide exchange yield is 50 to 75%.

B15: TLAEEVVAL (peptide)
peptide: TLAEEVVAL
On to B15, for which the peptide exchange yield fell in the range of 50 to 75%.

B16: FLYIGDIVSL (peptide)
peptide: FLYIGDIVSL
As for B16, the peptide exchange yield was no less than 75%.

B17: YLDFSNNRL (peptide)
peptide: YLDFSNNRL
Regarding B17, the peptide exchange yield is 20 to 50%.

B18: YLQELIFSV (peptide)
peptide: YLQELIFSV
Turning to B18, the peptide exchange yield was in the range of 50 to 75%.

B19: SLVGEPILQNV (peptide)
peptide: SLVGEPILQNV
As to B19, the peptide exchange yield lay in the range of 20 to 50%.

B20: FLSQVDFEL (peptide)
peptide: FLSQVDFEL
As for B20, the peptide exchange yield lay within 50 to 75%.

B21: ALNPEIVSV (peptide)
peptide: ALNPEIVSV
In the case of B21, the peptide exchange yield lay in the range of 20 to 50%.

B22: YLLSTNAQL (peptide)
peptide: YLLSTNAQL
For the molecule B22, the peptide exchange yield was no less than 75%.

B23: ALLGIPLTLV (peptide)
peptide: ALLGIPLTLV
On to B23, for which the peptide exchange yield was in the range of 50 to 75%.

B24: AIAGAGILYGV (peptide)
peptide: AIAGAGILYGV
Turning to B24, the peptide exchange yield lay in the range of 20 to 50%.

B25: LLLDITPEI (peptide)
peptide: LLLDITPEI
Molecule B25 showed a peptide exchange yield of no less than 75%.

B26: IILSILEQA (peptide)
peptide: IILSILEQA
B26 registered a peptide exchange yield of no less than 75%.

B27: YMDAPKAAL (peptide)
peptide: YMDAPKAAL
For the molecule B27, the peptide exchange yield was 20 to 50%.

B28: LLQAIKLYL (peptide)
peptide: LLQAIKLYL
On to B28, for which the peptide exchange yield fell in the range of 20 to 50%.

B29: STMEQNFLL (peptide)
peptide: STMEQNFLL
For the molecule B29, the peptide exchange yield was no less than 75%.

B30: ALYETELADA (peptide)
peptide: ALYETELADA
The molecule B30 returned a peptide exchange yield of 20 to 50%.

B31: SVMEVNSGIYRV (peptide)
peptide: SVMEVNSGIYRV
Consider B31, for which the peptide exchange yield lay in the range of 50 to 75%.

B32: KILQQLVTL (peptide)
peptide: KILQQLVTL
Molecule B32 came in with a peptide exchange yield of 50 to 75%.

B33: SLATAGDGLIEL (peptide)
peptide: SLATAGDGLIEL
In turn, B33 registered a peptide exchange yield of 20 to 50%.

B34: FLWNGEDSALL (peptide)
peptide: FLWNGEDSALL
B34 registered a peptide exchange yield of 50 to 75%.

B35: YLFDDPLSAV (peptide)
peptide: YLFDDPLSAV
Regarding B35, the peptide exchange yield lay in the range of 20 to 50%.

B36: VQIHQVAQV (peptide)
peptide: VQIHQVAQV
Regarding B36, the peptide exchange yield is 50 to 75%.

B37: NLLELFVQL (peptide)
peptide: NLLELFVQL
With B37, the peptide exchange yield was in the range of 50 to 75%.

B38: GVVDPRAISVL (peptide)
peptide: GVVDPRAISVL
For the molecule B38, the peptide exchange yield lay in the range of 20 to 50%.

B39: ALSEVDFQL (peptide)
peptide: ALSEVDFQL
For B39, the peptide exchange yield fell in the range of 50 to 75%.

B40: YIMEPSIFNTL (peptide)
peptide: YIMEPSIFNTL
As to B40, the peptide exchange yield lay in the range of 50 to 75%.

B41: SLLEADPFL (peptide)
peptide: SLLEADPFL
Molecule B41 returned a peptide exchange yield of 50 to 75%.

B42: KVLSNIHTV (peptide)
peptide: KVLSNIHTV
Regarding B42, the peptide exchange yield lay in the range of 20 to 50%.

B43: ILPDGEDFLAV (peptide)
peptide: ILPDGEDFLAV
Molecule B43 gave a peptide exchange yield of 50 to 75%.

B44: YHIDEEVGF (peptide)
peptide: YHIDEEVGF
Turning to B44, the peptide exchange yield was 10 to 20%.

B45: YVWGFYPAEV (peptide)
peptide: YVWGFYPAEV
As to B45, the peptide exchange yield was 50 to 75%.

B46: LIIDQADIYL (peptide)
peptide: LIIDQADIYL
Consider B46, for which the peptide exchange yield lay within 50 to 75%.

B47: SLINGSFLV (peptide)
peptide: SLINGSFLV
B47 displayed a peptide exchange yield of 50 to 75%.

B48: SLLEAVSFL (peptide)
peptide: SLLEAVSFL
Take B48: the peptide exchange yield lay within 50 to 75%.

B49: YIFTDNPAAV (peptide)
peptide: YIFTDNPAAV
For B49, the peptide exchange yield lay within 50 to 75%.

B50: FLQPVDDTQHL (peptide)
peptide: FLQPVDDTQHL
Molecule B50 gave a peptide exchange yield of 50 to 75%.

B51: LLYDAVHIVSV (peptide)
peptide: LLYDAVHIVSV
B51 displayed a peptide exchange yield of 50 to 75%.

B52: TLVLTLPTV (peptide)
peptide: TLVLTLPTV
Regarding B52, the peptide exchange yield is no less than 75%.

B53: GIMEHITKI (peptide)
peptide: GIMEHITKI
B53 returned a peptide exchange yield of no less than 75%.

B54: GLLPTPLFGV (peptide)
peptide: GLLPTPLFGV
As for B54, the peptide exchange yield is 50 to 75%.

B55: VLVSDGVHSV (peptide)
peptide: VLVSDGVHSV
In turn, B55 registered a peptide exchange yield of 50 to 75%.

B56: SLASKLTTL (peptide)
peptide: SLASKLTTL
As to B56, the peptide exchange yield was no less than 75%.

B57: ALVSKGLATV (peptide)
peptide: ALVSKGLATV
On to B57, for which the peptide exchange yield lay within 20 to 50%.

B58: YLFESEGLVL (peptide)
peptide: YLFESEGLVL
B58 came in with a peptide exchange yield of 50 to 75%.

B59: KIGDEPPKV (peptide)
peptide: KIGDEPPKV
As to B59, the peptide exchange yield lay within 20 to 50%.

B60: GLLDGGVDILL (peptide)
peptide: GLLDGGVDILL
The molecule B60 displayed a peptide exchange yield of 50 to 75%.

B61: FLATSGTLAGI (peptide)
peptide: FLATSGTLAGI
For B61, the peptide exchange yield lay within 20 to 50%.

B62: FVPPVTVFPSL (peptide)
peptide: FVPPVTVFPSL
With B62, the peptide exchange yield lay in the range of 20 to 50%.

B63: ALFPGVALLLA (peptide)
peptide: ALFPGVALLLA
Turning to B63, the peptide exchange yield is no less than 75%.
